{"source": "patent US7214517B2", "about": "“α1,2-fucosyltransferase and DNA encoding the same” (Kyowa Hakko Kogyo Co., Ltd., priority 2001, dated 2007)", "molecules": {"B1": {"name": "Helicobacter mustelae-derived α1,2-fucosyltransferase: Protein comprising the amino acid sequence of SEQ ID NO:1, from Helicobacter mustelae ATCC 43772 (protein, listed as Helicobacter mustelae)", "chain": "MDFKIVQVHGGLGNQMFQYAFAKSLQTHLNIPVLLDTTWFDYGNRELGLHLFPIDLQCASAQQIAAAHMQNLPRLVRGALRRMGLGRVSKEIVFEYMPELFEPSRIAYFHGYFQDPRYFEDISPLIKQTFTLPHPTEHAEQYSRKLSQILAAKNSVFVHIRRGDYMRLGWQLDISYQLRAIAYMAKRVQNLELFLFCEDLEFVQNLDLGYPFVDMTTRDGAAHWDMMLMQSCKHGIITNSTYSWWAAYLIKNPEKIIIGPSHWIYGNENILCKDWVKIESQFETKS"}}, "key": {"[1]": {"assay": "Production of fucose-containing carbohydrate from different acceptor carbohydrates, wet cells as enzyme source (Example 7)", "assay_type": "biochemical", "conditions": "conclusion from Table 1", "procedure": "(§1) Escherichia coli DH5α/pHMFT80 obtained in Example 5 was inoculated on 8 ml of LB medium [containing 10 g/l bacto tryptone (manufactured by Difco), 10 g/l yeast extract (manufactured by Difco) and 5 g/l NaCl] containing 50 μg/ml ampicillin in a test tube, and cultured at 30° C. for 12 hours. The culture was inoculated into 8 ml of LB medium containing 50 μg/ml ampicillin, with an inoculum size of 5%, and cultured at 30° C. for 2 hours. Then, isopropyl-β-D-thiogalactopyranoside was added thereto at a final concentration of 1 mmol/l, and further cultured at 30° C. for 8 hours. Wet cells were obtained by centrifuging 1 ml of the culture. Since the wet cells can be stored at −20° C., if necessary, it was able to use them by thawing-prior to use.\n(§2) The reaction was carried out at 32° C. for 9 hours in 0.1 ml of a reaction solution composed of the wet cells of Escherichia coli DH5α/pHMFT80 prepared from 1 ml of the culture, 50 mmol/l of a citrate buffer (pH 7.0), 10 mmol/l MnCl2, 10 mmol/l lactose, 10 mmol/l GDP-fucose and 4 g/l Nymeen S-215.\n• Column: CarboPAC PA10 • Eluent:. A; H2O, B; 500 mmol/l NaOH • Gradient: Concentration of the eluent B at 0 minute is adjusted to 8% and increased to 20% spending 21 minutes. • Detector: Pulsed amperometry detector\nEscherichia coli DH5α/pHMFT80 and Escherichia coli DH5α/pHPFT80 respectively obtained in. […]"}, "[2]": {"assay": "Production of fucosyllactose in the presence or absence of GDP (feedback inhibition, Example 8)", "assay_type": "biochemical", "conditions": "conclusion from Table 2", "procedure": "as §1, §2\nFucosyllactose was produced in a similar manner described in Example 7 in the presence or absence of 5 mmol/l guanosine 5′-diphosphate (GDP) using lactose as an acceptor carbohydrate."}}}
{"molecule": "B1", "values": [{"measurement": "activity compared to Helicobacter pylori-derived α1,2-fucosyltransferase", "setting": "[1]", "result": "higher activity"}, {"measurement": "substrate specificity compared to Helicobacter pylori-derived α1,2-fucosyltransferase", "setting": "[1]", "result": "higher substrate specificity to lactose"}, {"measurement": "sensitivity to feedback inhibition by GDP compared to Helicobacter pylori-derived α1,2-fucosyltransferase", "setting": "[2]", "result": "more insensitive to feedback inhibition by GDP"}]}
